B1: SEQ ID NO: 551 (designed binder)
chain: MGSWMEFDYRLEAIWMRLIALGGSEAELADFESSIADFEHHLQSYKGKGNPEVEALEWEAFAIGVELDAYRHN
notes: D domain, on phage
B2: SEQ ID NO: 552 (designed binder)
chain: MGSWYEFESRLEAIWWRLEALGGSEAELAQFEQYIADFEQHLQWYKGKGNPEVEALDWEADAIWLELQAYRHN
notes: D domain, on phage
B3: SEQ ID NO: 553 (designed binder)
chain: MGSWEEFYMRLVAIHMRLRALGGSEAELAVFENYIAEFEEYLQYYKGKGNPEVEALTIEADAIGTELGAYRHN
notes: D domain, on phage
B4: SEQ ID NO: 554 (designed binder)
chain: MGSWDEFYYRLVAITHRLHALGGSEAELAWFEDDIAGFEWDLQTYKGKGNPEVEALYKEAGAIGMELTAYRHN
notes: D domain, on phage
B5: SEQ ID NO: 555 (designed binder)
chain: MGSWEEFDTRLLAIFGRLGALGGSEAELALFEMLIAKFEDDLQNYKGKGNPEVEALSEEAFAIDHELGAYRHN
notes: D domain, on phage
B6: SEQ ID NO: 556 (designed binder)
chain: MGSWREFDQRLWAIDWRLEALGGSEAELAMFEWMIATFEDDLQWYKGKGNPEVEALYREAFAIDWELDAYRHN
notes: D domain, on phage
B7: SEQ ID NO: 557 (designed binder)
chain: MGSWEEFHERLDAIDERLEALGGSEAELAFFEDDIASFEDWLQWYKGKGNPEVEALSREADAINFELEAYRHN
notes: D domain, on phage
B8: SEQ ID NO: 558 (designed binder)
chain: MGSWNEFYERLEAIDRRLFALGGSEAELALFEWMIADFEDDLQMYKGKGNPEVEALINEAGAIGFELEAYRHN
notes: D domain, on phage
B9: SEQ ID NO: 559 (designed binder)
chain: MGSWTEFTQRLEAIVDRLFALGGSEAELAEFENSIADFEWDLQWYKGKGNPEVEALNREAVAIDNELWAYRHN
notes: D domain, on phage
B10: SEQ ID NO: 560 (designed binder)
chain: MGSWVEFIMRLDAIYERLDALGGSEAELAEFEWHIADFEDHLQWYKGKGNPEVEALFEEADAIWEELWAYRHN
notes: D domain, on phage
B11: SEQ ID NO: 561 (designed binder)
chain: MGSWNEFLLRLDAIEHRLFALGGSEAELAEFEWEIADFEDDLQWYKGKGNPEVEALVEEAEAIDVELVAYRHN
notes: D domain, on phage
B12: SEQ ID NO: 562 (designed binder)
chain: MGSWYEFNMRLGAIDDRLQALGGSEAELAWFEDMIAIFEDDLQIYKGKGNPEVEALEQEAAAIHQELWAYRHN
notes: D domain, on phage
B13: SEQ ID NO: 563 (designed binder)
chain: MGSWEEFHWRLGAIDARLEALGGSEAELAWFEDGIADFEAILQDYKGKGNPEVEALDSEAVAIHHELWAYRHN
notes: D domain, on phage
B14: SEQ ID NO: 564 (designed binder)
chain: MGSWYEFYERLWAIDDRLWALGGSEAELAEFEDSIATFEPSLQMYKGKGNPEVEALVAEAWAIFDELAAYRHN
notes: D domain, on phage
B15: SEQ ID NO: 565 (designed binder)
chain: MGSWFEFDQRLDAITFRLWALGGSEAELAEFEDVIALFEYHLQDYKGKGNPEVEALEVEAWAIFHELGAYRHN
notes: D domain, on phage
B16: SEQ ID NO: 566 (designed binder)
chain: MGSWSEFWFRLDAIEDRLWALGGSEAELAEFEDNIALFEYSLQHYKGKGNPEVEALVKEANAIDDELGAYRHN
notes: D domain, on phage
B17: SEQ ID NO: 567 (designed binder)
chain: MGSWYEFWDRLTAIEHRLWALGGSEAELAYFEDSIAHFEGSLQVYKGKGNPEVEALYKEAEAIEWELEAYRHN
notes: D domain, on phage
B18: SEQ ID NO: 568 (designed binder)
chain: MGSWYEFDDRLWAIFDRLFALGGSEAELAFFEDSIAEFEEELQHYKGKGNPEVEALYLEAWAIENELGAYRHN
notes: D domain, on phage

These binders were tested against T1, recombinant human CD123-Fc (human, UniProt P26951 19-305) (assay: phage ELISA, captured CD123-Fc).
T1 construct: not shown: Fc part of CD123-Fc
T1 sequence: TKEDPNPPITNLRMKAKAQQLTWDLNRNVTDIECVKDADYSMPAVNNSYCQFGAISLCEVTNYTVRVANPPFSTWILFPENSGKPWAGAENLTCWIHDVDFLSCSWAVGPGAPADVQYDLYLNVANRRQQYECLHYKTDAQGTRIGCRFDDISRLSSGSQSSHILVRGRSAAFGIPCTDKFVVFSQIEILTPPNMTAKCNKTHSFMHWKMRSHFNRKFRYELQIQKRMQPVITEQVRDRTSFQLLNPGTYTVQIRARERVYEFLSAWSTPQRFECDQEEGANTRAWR
How it was run: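 Phage from BCMA panning colonies were rescued with VCSM13 helper phage and diluted 5× in blocking buffer. Plates coated with anti-human IgG1-Fc captured 5 nM target-Fc or IgG1-Fc, and binding was detected with HRP anti-M13. Ratio = A450 target/A450 IgG1-Fc, averaged over the clone's wells.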

In order of rising ELISA_avg:
1. B1  3.1 ratio A450 target/IgG1-Fc
2. B11  3.2 ratio A450 target/IgG1-Fc
3. B15  3.2 ratio A450 target/IgG1-Fc
4. B13  3.3 ratio A450 target/IgG1-Fc
5. B6  3.4 ratio A450 target/IgG1-Fc
6. B14  3.6 ratio A450 target/IgG1-Fc
7. B12  3.8 ratio A450 target/IgG1-Fc
8. B9  3.9 ratio A450 target/IgG1-Fc
9. B7  4.3 ratio A450 target/IgG1-Fc
10. B2  4.4 ratio A450 target/IgG1-Fc
11. B3  4.4 ratio A450 target/IgG1-Fc
12. B17  4.4 ratio A450 target/IgG1-Fc
13. B16  4.5 ratio A450 target/IgG1-Fc
14. B18  4.7 ratio A450 target/IgG1-Fc
15. B8  5.2 ratio A450 target/IgG1-Fc
16. B4  5.4 ratio A450 target/IgG1-Fc
17. B10  6.4 ratio A450 target/IgG1-Fc
18. B5  6.7 ratio A450 target/IgG1-Fc

— patent publication US20230125550A1 (ARCELLX, published 2023)
